Results from patent publication US20250352624A1, “SUPEROXIDE DISMUTASE AND USES THEREOF FOR PREVENTING OR TREATING DRY EYE SYNDROME” (GENOFOCUS, INC., priority 2021, published 2025).

Legend:
Assay type in all cases: in vivo
[1] = system: experimental dry eye (EDE)-induced C57BL/6 mouse model; assay: Corneal fluorescent staining score in experimental dry eye mice; settings: for corneal fluorescent staining score: total 0 to 16 points
Description: (§1) To induce experimental dry eye, 7- to 8-week-old C57BL/6 mice (purchased from Damool Science) were injected subcutaneously with scopolamine hydrochloride at 0.5 mg/0.2 ml three times a day under exposure to a ventilating device for 18 hours a day. The humidity was maintained at 30%, and the temperature was maintained at 25° C. The C57BL/6 mice were classified into 7 groups, depending on concentrations of the oral drug to be administered, as shown in Table 6.
(§2) After inducing experimental dry eye in the experimental mice, the drugs prepared in Example 3 were orally administered at 2 μL per dose once a day to the treatment groups (administered at 13:30 every day). In both eyes of all mice, at baseline, day 5, and day 10, tear volume and tear film break-up time were measured and corneal fluorescent staining score was examined. The mice were then sacrificed and tissue analysis was performed. Each group consisted of 6 animals.
1 μL of 1% fluorescent dye was instilled into the eyes of each mouse, followed by washing with saline. Subsequently, the cornea of each mouse was observed using a slit lamp microscope to score the degree of epithelial injury (the extent to which fluorescent staining occurred).

[2] = system: experimental dry eye (EDE)-induced C57BL/6 mouse model; assay: Malondialdehyde (MDA) by ELISA in cornea, conjunctiva and lacrimal gland; settings: for MDA efficacy as compared with 0.05% CsA: 10 mg/kg oral
Description: as §1, §2
The corneas, conjunctivas, and lacrimal glands were excised from both eyes (6 eyes) of 3 animals in each group required for tissue analysis. The samples were homogenized in PBS, and then the lysates were centrifuged at 10000×g for 10 minutes at 4° C. The supernatant was taken and the total amount of protein was measured using the Bradford assay. MDA was detected using an ELISA (Enzyme-linked immunosorbent assay) kit (manufactured by Quantikine, R&D Systems, Minneapolis, MN) containing capture and detection antibodies according to the manufacturer's manual. Using ELISA, MDA levels in the cornea, conjunctiva, and lacrimal gland were measured and recorded, respectively.

[3] = system: experimental dry eye (EDE)-induced C57BL/6 mouse model; assay: Tear volume (phenol red thread) in experimental dry eye mice
Description: as §1, §2
Tear volume was determined as follows. A phenol red-impregnated cotton thread was brought into contact for 20 seconds with the conjunctival sac on the lateral canthus side of each mouse, and the length was measured using SMZ microscopy. Then, the measured length was converted into a volume by substituting it into a given formula (see Villareal A L, Farley W, Pflugfelder S C. Effect of topical ophthalmic epinastine and olopatadine on tear volume in mice. Eye Contact Lens. 2006; 32:272-6).

[4] = system: experimental dry eye (EDE)-induced C57BL/6 mouse model; assay: CD4+IFN-γ+ T cells by flow cytometry
Description: as §1, §2
The cornea, conjunctiva, and lacrimal gland were excised, sectioned with scissors, and then shaken with 0.5 mg/mL of collagenase type D (manufactured by Roche Applied Science, Indianapolis, IN, USA) at 37° C. for 60 minutes. The tissue was ground and then allowed to pass through a cell strainer, followed by centrifugation. The number of CD4+IFN-γ+T cells was calculated by performing flow cytometry with fluorescein-conjugated anti-CD4 antibody and phycoerythrin-conjugated anti-IFN-γ antibody, and the number of DCF-DA cells was calculated using the CM-H2DCFDA kit (manufactured by Thermo Fisher Scientific, Waltham, MA, USA).

[5] = system: experimental dry eye (EDE)-induced C57BL/6 mouse model; assay: Tear film break-up time in experimental dry eye mice
Description: as §1, §2
To evaluate tear film stability, which is known to be the most important clinical factor in dry eye, tear film break-up time was measured. 1 μl of 1% fluorescent dye (fluorescein) was instilled into the lower conjunctival sac of each mouse, and then each mouse was allowed to blink about three times. Subsequently, the eyes were gently made open, and then the time (seconds) until the first defect occurred in the stained tear film was measured using a slit lamp microscope equipped with a cobalt blue filter. This was repeated three times to obtain the average value.

[6] = system: experimental dry eye (EDE)-induced C57BL/6 mouse model; assay: Inflammatory cytokines by Luminex multiplex immunobead assay
Description: as §1
In both eyes of all mice, at baseline, day 5, and day 10, tear volume and tear film break-up time were measured and corneal fluorescent staining score was examined. The mice were then sacrificed and tissue analysis was performed. Each group consisted of 6 animals.
Conjunctival tissue was excised and collected from 6 eyes of 3 animals in each group, and then immersed in lysis buffer containing protease inhibitors for 30 minutes. Subsequently, the resultant was centrifuged and stored −80° C. Then, the concentrations of IFN-γ, IL-1Bβand TNF-α in the cornea and conjunctiva were analyzed using the Luminex multiplex immunobead assay.

[7] = before drug administration, 2.5 mg/kg oral group
[8] = before drug administration, 5 mg/kg oral group
[9] = before drug administration, 10 mg/kg oral group
[10] = day 5 of administration, 2.5 mg/kg oral once a day
[11] = day 5 of administration, 5 mg/kg oral once a day
[12] = day 5 of administration, 10 mg/kg oral once a day
[13] = day 10 of administration, 2.5 mg/kg oral once a day
[14] = day 10 of administration, 5 mg/kg oral once a day
[15] = day 10 of administration, 10 mg/kg oral once a day
[16] = days 5 and 10, 0.05% CsA eye drop, SodA2 2.5, 5 and 10 mg/kg oral
[17] = conjunctiva, 2.5 mg/kg oral once a day
[18] = conjunctiva, 5 mg/kg oral once a day
[19] = conjunctiva, 10 mg/kg oral once a day
[20] = cornea, 2.5 mg/kg oral once a day
[21] = cornea, 5 mg/kg oral once a day
[22] = cornea, 10 mg/kg oral once a day
[23] = cornea and conjunctiva, CsA and oral SodA2 groups

B1: SodA2: variant Mn-SOD of Bacillus amyloliquefaciens GF423 sodA, Asn73 and Asn136 replaced with Asp, SEQ ID NO: 4; given orally shellac-coated, mixed with dextrin (protein, listed as Bacillus amyloliquefaciens)
chain: MAYKLPELPYAYDALEPHIDKETMTIHHTKHHNTYVTNLNKAIEGSALAEKSVDELVADLNAVPEDIRTAVRDDGGGHANHSLFWTLLSPNGGGEPTGELAEEIKSTFGSFDQFKEKFAAAAAGRFGSGWAWLVVDDGKLEITSTPNQDSPLSEGKTPVLGLDVWEHAYYLNYQNRRPDYISAFWNVVNWDEVARLYSEAK
modifications: shellac coating; dextrin mixture
- corneal fluorescent staining score as compared with the 0.05% CsA group ([1]; 5 mg/kg oral): more significant decrease
- corneal fluorescent staining score [1, 7]: 9.2±1.7 points
- corneal fluorescent staining score [1, 8]: 9.4±1.7 points
- corneal fluorescent staining score [1, 9]: 9.3±1.7 points
- corneal fluorescent staining score [1, 10]: 10.4±1.9 points
- corneal fluorescent staining score [1, 11]: 9.9±2.5 points
- corneal fluorescent staining score [1, 12]: 10.1±2.9 points
- corneal fluorescent staining score [1, 13]: 8.8±2 points
- corneal fluorescent staining score [1, 14]: 7.8±1.9 points
- corneal fluorescent staining score [1, 15]: 8.2±1.9 points
- corneal fluorescent staining score as compared with the EDE and vehicle groups [1, 16]: significant decrease
- MDA efficacy as compared with 0.05% CsA ([2]; conjunctiva): superior
- MDA efficacy as compared with 0.05% CsA ([2]; cornea, lacrimal gland): similar
- MDA concentration, Conjunctiva [2, 17]: 21.5 ± 9.26 pmol/mL
- MDA concentration, Conjunctiva [2, 18]: 19.0 ± 7.17 pmol/mL
- MDA concentration, Conjunctiva [2, 19]: 16.3 ± 9.12 pmol/mL
- MDA concentration as compared with the EDE and vehicle groups ([2]; cornea, conjunctiva and lacrimal gland, CsA and oral SodA2 groups): decreased
- MDA concentration, Cornea [2, 20]: 22.7 ± 13.8 pmol/mL
- MDA concentration, Cornea [2, 21]: 20.2 ± 14.0 pmol/mL
- MDA concentration, Cornea [2, 22]: 18.5 ± 10.6 pmol/mL
- MDA concentration, Lacrimal gland ([2]; lacrimal gland, 2.5 mg/kg oral once a day): 22.6 ± 7.72 pmol/mL
- MDA concentration, Lacrimal gland ([2]; lacrimal gland, 5 mg/kg oral once a day): 18.8 ± 11.6 pmol/mL
- MDA concentration, Lacrimal gland ([2]; lacrimal gland, 10 mg/kg oral once a day): 22.5 ± 11.4 pmol/mL
- tear volume as compared with the 0.05% CsA group ([3]; 5 mg/kg oral): more significant increase
- tear volume [3, 7]: 0.024 ± 0.003 µL
- tear volume [3, 8]: 0.022 ± 0.004 µL
- tear volume [3, 9]: 0.023 ± 0.004 µL
- tear volume [3, 10]: 0.026 ± 0.005 µL
- tear volume [3, 11]: 0.026 ± 0.005 µL
- tear volume [3, 12]: 0.026 ± 0.005 µL
- tear volume [3, 13]: 0.027 ± 0.005 µL
- tear volume [3, 14]: 0.03 ± 0.005 µL
- tear volume [3, 15]: 0.028 ± 0.004 µL
- tear volume as compared with the EDE and vehicle groups [3, 16]: significant increase
- proportion of CD4+IFN-γ+T cells [4, 17]: 21.00±0.63%
- proportion of CD4+IFN-γ+T cells [4, 18]: 22.87±2.47%
- proportion of CD4+IFN-γ+T cells [4, 19]: 25.83±0.27%
- proportion of CD4+IFN-γ+T cells as compared with the EDE and vehicle groups [4, 23]: significant decrease
- proportion of CD4+IFN-γ+T cells as compared with the 0.05% CsA group ([4]; cornea, 2.5 mg/kg oral): significantly lower
- proportion of CD4+IFN-γ+T cells [4, 20]: 21.18±0.15%
- proportion of CD4+IFN-γ+T cells [4, 21]: 23.87±0.17%
- proportion of CD4+IFN-γ+T cells [4, 22]: 30.24±1.33%
- tear film break-up time as compared with the 0.05% CsA group ([5]; 5 mg/kg and 10 mg/kg oral): similar
- tear film break-up time [5, 7]: 1.44 ± 0.15 s
- tear film break-up time [5, 8]: 1.42 ± 0.16 s
- tear film break-up time [5, 9]: 1.41 ± 0.25 s
- tear film break-up time [5, 10]: 1.23 ± 0.2 s
- tear film break-up time [5, 11]: 1.31 ± 0.3 s
- tear film break-up time [5, 12]: 1.28 ± 0.3 s
- tear film break-up time [5, 13]: 1.21 ± 0.3 s
- tear film break-up time [5, 14]: 1.28 ± 0.3 s
- tear film break-up time [5, 15]: 1.3 ± 0.3 s
- tear film break-up time as compared with the EDE and vehicle groups [5, 16]: significant increase
- IFN-γ [6, 17]: 21.27 ± 17.49 pg/mL
- IL-1β [6, 17]: 21.5 ± 9.26 pg/mL
- TNF-α [6, 17]: 22.6 ± 7.72 pg/mL
- IFN-γ [6, 18]: 18.28 ± 11.75 pg/mL
- IL-1β [6, 18]: 19.0 ± 7.17 pg/mL
- TNF-α [6, 18]: 18.8 ± 11.6 pg/mL
- IFN-γ [6, 19]: 15.53 ± 11.43 pg/mL
- IL-1β [6, 19]: 16.3 ± 9.12 pg/mL
- TNF-α [6, 19]: 22.5 ± 11.4 pg/mL
- concentrations of IFN-γ, IL-1β, and TNF-α as compared with the EDE and vehicle groups [6, 23]: tendency of decreased concentrations
- IFN-γ [6, 20]: 10.77 ± 8.30 pg/mL
- IL-1β [6, 20]: 15.45 ± 8.93 pg/mL
- TNF-α [6, 20]: 22.6 ± 7.72 pg/mL
- IFN-γ [6, 21]: 9.80 ± 6.11 pg/mL
- IL-1β [6, 21]: 13.17 ± 2.26 pg/mL
- TNF-α [6, 21]: 18.8 ± 11.6 pg/mL
- IFN-γ [6, 22]: 7.89 ± 7.90 pg/mL
- IL-1β [6, 22]: 8.69 ± 4.18 pg/mL
- TNF-α [6, 22]: 22.5 ± 11.4 pg/mL
- inflammatory cytokines as compared with CsA ([6]; oral, all doses): tended to decrease inflammatory cytokines more than CsA
